Molecular target: Recombinant MRE11-RAD50-NBS1 (MRN) complex (human | , UniProt P49959 1-708; Q92878 1-1312; O60934 1-754)
Experiment: co-IP

Recombinant MRE11-RAD50-NBS1 (MRN) complex, sequence (P49959 whole entry, chain 1 of 3): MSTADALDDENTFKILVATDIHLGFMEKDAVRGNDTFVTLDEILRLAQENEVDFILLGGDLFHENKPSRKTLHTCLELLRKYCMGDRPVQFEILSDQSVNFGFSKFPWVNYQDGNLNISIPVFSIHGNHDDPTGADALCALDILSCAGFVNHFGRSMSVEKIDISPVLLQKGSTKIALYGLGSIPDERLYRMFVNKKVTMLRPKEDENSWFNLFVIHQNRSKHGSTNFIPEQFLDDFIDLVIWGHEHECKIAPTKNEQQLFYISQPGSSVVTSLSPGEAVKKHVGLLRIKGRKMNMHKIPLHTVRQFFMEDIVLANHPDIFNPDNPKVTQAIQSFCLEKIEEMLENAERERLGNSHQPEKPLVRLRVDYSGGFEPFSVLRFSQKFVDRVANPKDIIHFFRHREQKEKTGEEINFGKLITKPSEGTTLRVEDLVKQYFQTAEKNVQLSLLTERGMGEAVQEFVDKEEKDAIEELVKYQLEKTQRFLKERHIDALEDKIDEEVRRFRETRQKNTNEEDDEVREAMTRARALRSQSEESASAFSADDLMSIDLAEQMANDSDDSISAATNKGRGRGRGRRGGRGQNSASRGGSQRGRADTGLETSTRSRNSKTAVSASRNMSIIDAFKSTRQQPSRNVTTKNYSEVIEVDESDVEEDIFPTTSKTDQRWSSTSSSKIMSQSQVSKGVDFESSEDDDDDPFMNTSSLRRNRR
Recombinant MRE11-RAD50-NBS1 (MRN) complex, sequence (Q92878 whole entry, chain 2 of 3): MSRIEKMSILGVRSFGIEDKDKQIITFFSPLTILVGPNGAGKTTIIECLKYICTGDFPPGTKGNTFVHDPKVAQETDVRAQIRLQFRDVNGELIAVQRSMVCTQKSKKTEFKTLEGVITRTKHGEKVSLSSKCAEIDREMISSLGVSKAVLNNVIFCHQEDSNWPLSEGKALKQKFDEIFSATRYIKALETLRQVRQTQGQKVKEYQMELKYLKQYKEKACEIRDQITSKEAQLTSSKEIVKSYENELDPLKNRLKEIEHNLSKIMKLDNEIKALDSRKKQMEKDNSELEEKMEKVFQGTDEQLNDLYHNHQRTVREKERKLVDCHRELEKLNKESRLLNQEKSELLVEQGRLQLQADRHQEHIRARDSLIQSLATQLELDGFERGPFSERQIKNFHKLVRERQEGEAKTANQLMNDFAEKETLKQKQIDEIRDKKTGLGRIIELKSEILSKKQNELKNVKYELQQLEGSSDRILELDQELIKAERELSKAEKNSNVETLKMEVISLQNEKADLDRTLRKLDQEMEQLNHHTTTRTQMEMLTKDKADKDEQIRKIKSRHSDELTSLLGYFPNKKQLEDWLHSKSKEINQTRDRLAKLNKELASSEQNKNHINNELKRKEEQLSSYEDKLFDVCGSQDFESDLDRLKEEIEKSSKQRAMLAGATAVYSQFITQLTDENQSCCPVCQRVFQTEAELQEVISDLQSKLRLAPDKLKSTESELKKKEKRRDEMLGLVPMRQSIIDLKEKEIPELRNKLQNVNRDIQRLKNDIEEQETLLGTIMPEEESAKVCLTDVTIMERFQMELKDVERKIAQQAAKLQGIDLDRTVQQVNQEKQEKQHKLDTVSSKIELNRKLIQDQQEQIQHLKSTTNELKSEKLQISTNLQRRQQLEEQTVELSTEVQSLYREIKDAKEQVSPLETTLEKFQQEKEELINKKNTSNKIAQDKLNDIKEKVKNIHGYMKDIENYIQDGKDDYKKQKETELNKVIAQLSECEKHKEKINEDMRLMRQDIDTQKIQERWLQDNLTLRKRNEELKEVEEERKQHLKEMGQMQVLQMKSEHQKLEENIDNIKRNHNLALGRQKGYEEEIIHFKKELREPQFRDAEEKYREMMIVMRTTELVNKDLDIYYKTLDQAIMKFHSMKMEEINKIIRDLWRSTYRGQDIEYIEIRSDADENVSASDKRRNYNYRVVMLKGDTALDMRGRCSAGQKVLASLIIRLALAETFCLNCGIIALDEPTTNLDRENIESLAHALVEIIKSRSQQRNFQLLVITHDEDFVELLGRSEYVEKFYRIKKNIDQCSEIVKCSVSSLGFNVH
Recombinant MRE11-RAD50-NBS1 (MRN) complex, sequence (O60934 whole entry, chain 3 of 3): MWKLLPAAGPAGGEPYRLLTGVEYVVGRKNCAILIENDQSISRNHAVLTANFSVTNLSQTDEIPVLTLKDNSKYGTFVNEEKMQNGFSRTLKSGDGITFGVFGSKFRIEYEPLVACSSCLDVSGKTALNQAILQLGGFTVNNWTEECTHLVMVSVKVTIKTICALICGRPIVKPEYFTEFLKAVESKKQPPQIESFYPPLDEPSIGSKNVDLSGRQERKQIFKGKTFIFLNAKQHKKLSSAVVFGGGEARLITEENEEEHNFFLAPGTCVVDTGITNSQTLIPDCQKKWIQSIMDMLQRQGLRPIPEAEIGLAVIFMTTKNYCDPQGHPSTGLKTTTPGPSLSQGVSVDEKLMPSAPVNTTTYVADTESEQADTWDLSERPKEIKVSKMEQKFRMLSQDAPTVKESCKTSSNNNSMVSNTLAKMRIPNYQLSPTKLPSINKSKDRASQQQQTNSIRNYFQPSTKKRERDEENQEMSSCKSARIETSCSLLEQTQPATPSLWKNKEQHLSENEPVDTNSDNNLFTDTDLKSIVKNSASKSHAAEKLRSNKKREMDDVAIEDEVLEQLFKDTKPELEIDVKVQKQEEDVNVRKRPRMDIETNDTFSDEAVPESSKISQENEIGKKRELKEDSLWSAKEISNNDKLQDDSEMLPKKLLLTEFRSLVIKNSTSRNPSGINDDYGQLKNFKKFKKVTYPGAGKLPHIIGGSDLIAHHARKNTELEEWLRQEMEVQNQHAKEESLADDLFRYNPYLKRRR

B1: Recombinant FLAG-GST-CtIP-6H (natural protein, human, UniProt Q99708 1-897, looked up)
chain: MNISGSSCGSPNSADTSSDFKDLWTKLKECHDREVQGLQVKVTKLKQERILDAQRLEEFFTKNQQLREQQKVLHETIKVLEDRLRAGLCDRCAVTEEHMRKKQQEFENIRQQNLKLITELMNERNTLQEENKKLSEQLQQKIENDQQHQAAELECEEDVIPDSPITAFSFSGVNRLRRKENPHVRYIEQTHTKLEHSVCANEMRKVSKSSTHPQHNPNENEILVADTYDQSQSPMAKAHGTSSYTPDKSSFNLATVVAETLGLGVQEESETQGPMSPLGDELYHCLEGNHKKQPFEESTRNTEDSLRFSDSTSKTPPQEELPTRVSSPVFGATSSIKSGLDLNTSLSPSLLQPGKKKHLKTLPFSNTCISRLEKTRSKSEDSALFTHHSLGSEVNKIIIQSSNKQILINKNISESLGEQNRTEYGKDSNTDKHLEPLKSLGGRTSKRKKTEEESEHEVSCPQASFDKENAFPFPMDNQFSMNGDCVMDKPLDLSDRFSAIQRQEKSQGSETSKNKFRQVTLYEALKTIPKGFSSSRKASDGNCTLPKDSPGEPCSQECIILQPLNKCSPDNKPSLQIKEENAVFKIPLRPRESLETENVLDDIKSAGSHEPIKIQTRSDHGGCELASVLQLNPCRTGKIKSLQNNQDVSFENIQWSIDPGADLSQYKMDVTVIDTKDGSQSKLGGETVDMDCTLVSETVLLKMKKQEQKGEKSSNEERKMNDSLEDMFDRTTHEEYESCLADSFSQAADEEEELSTATKKLHTHGDKQDKVKQKAFVEPYFKGDERETSLQNFPHIEVVRKKEERRKLLGHTCKECEIYYADMPAEEREKKLASCSRHRFRYIPPNTPENFWEVGFPSTQTCMERGYIKEDLDPCPRPKRRQPYNAIFSPKGKEQKT
Q: Does B1 bind?
A: binds
